Results published in publication PMC6995776 (Journal of molecular biology, 2019).

Key:
Experiment in all cases: ITC
[1] = biological target: T1, TbPRMT1 ENZ-PRO complex (wild type) (Trypanosoma brucei, UniProt Q4GYA9 1-345)
[2] = biological target: TbPRMT1 ENZ-Δ21PRO complex (Trypanosoma brucei, UniProt Q4GYA9 1-345)
[3] = biological target: TbPRMT1 ENZ-Δ31PRO complex (Trypanosoma brucei, UniProt Q4GYA9 1-345)
[4] = biological target: TbPRMT1 ENZ-Δ45PRO complex (Trypanosoma brucei, UniProt Q4GYA9 1-345)
[5] = biological target: T1, TbPRMT1 ENZ-PRO complex (wild type); remark: listed apart in the source

B1: Maltose Binding Protein (MBP)-fused TbRGG1 (natural protein)
chain: MVCSTICLFQRGQWGNEGSRGDQRNYDNRGGRGEWGDRGGQRGDNQRDYGDQRNYDNRGGRGEWGDRGGQRGDNQRDYGDQRNYDNRGGRGEWGDRGGQRGDNQRDYGDQRNYDNRGGRGEWGDRGGQRGDNQRDYGDQRNYDNRGGRGEWGDRGGQRGDNQRDYGDQRNYDNRGGRGEWGDRGGQRGDNQRNYDNRGGRGEWGDRGGQRGGNQRDNSNQFGYRNERDGGIGRQRSARDNFGAHDNRASDERGSTDPAVGEVFDEQAAKILYELKRRFKSSKTGKERRDVQREARRIVRRARVDPSTQDEKSVTLLLNCAATFRCYPHTEGIKQATEWMRKNIDGLSPQNVALFTNAIGALSVVDSDTILINEISPAVEACYGQMNPVELVMTLQAFQRGRITENEDLQVSLLQQLVTCVPQMPAPQLSTLAGVLVDTPLRKRDEATWQEIAKTVVSKAASGAENMHSREVITLLKATPRLGVPEDHSFHLVDRAIATVGFHTDEQIGELLEAVSYYRDPQKTCGRELNEKLDKLVDALWARLQKVAPFADAASVTTIMRAAHRSGVDVPRDIVSTLVQAVMRELRYHRFTFRRVASLSEALALQKVPAKELLVMLGDYCIGKRPPREERGENTPVDDHNSGIEERMDIYARFLGDLTKARIALENAHSSNAGNGEPGSSVSQILAQRLEDSVGSAPPRELLKSVRAICTAADDCPFRNRANDGKIIALSEQRIAKEGASFMEGVRKTTMENFLSAVSGIPQAQKVVEVLSHQTR
stoichiometry N [1]: 1 | Kd [2]: 36 µM | Kd [3]: 86 µM | Kd [4]: 160 µM | Kd [5]: 9 µM
